Source: US8173668B1 (Alcon Research, Ltd., priority 2007, dated 2012)

Legend:
[1] = molecular target: T1, B2-receptors in h-TM cells (Homo sapiens, UniProt P30411); assay: [Ca2+]i mobilization (FLIPR) in h-TM cells, agonist mode; type: cell-based; details: for Emax: HTM, read-out: Intrinsic Activity (Emax, % max relative to BK)
T1 construct: B2-receptor proteins in h-TM, h-CM and h-NPE cells; endogenous in cells; host or cells: human trabecular meshwork (h-TM), human ciliary muscle (h-CM) and human non-pigmented ciliary epithelial (h-NPE) cells
T1 sequence (P30411 1-391): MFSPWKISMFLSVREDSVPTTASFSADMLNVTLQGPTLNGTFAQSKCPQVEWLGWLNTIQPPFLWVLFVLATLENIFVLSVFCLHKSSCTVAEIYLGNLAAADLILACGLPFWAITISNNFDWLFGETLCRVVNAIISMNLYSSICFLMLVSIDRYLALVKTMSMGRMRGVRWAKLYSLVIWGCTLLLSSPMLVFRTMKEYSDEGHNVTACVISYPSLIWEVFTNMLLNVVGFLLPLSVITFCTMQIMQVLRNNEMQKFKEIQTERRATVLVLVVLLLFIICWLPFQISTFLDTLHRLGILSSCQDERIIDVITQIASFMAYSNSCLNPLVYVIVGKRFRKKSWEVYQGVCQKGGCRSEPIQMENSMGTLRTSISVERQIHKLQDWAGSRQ
Description: (§1) On the day of the experiment, one vial of FLIPR Calcium Assay Kit dye is re-suspended in 50 mL of a FLIPR buffer consisting of Hank's Balanced Salt Solution (HBSS), 20 mM HEPES, and 2.5 mM probenecid, pH 7.4. Cells are loaded with the calcium-sensitive dye by addition of an equal volume (50 μL) to each well of the 96-well plate and incubated with dye for 1 h at 23° C. After this time, the test compound plate and cell plate are placed in the FLIPR instrument. At the beginning of an experimental run, a signal test is performed to check the basal fluorescence signal from the dye-loaded cells and the uniformity of the signal across the plate. The basal fluorescence is adjusted between 8000-12000 counts by modifying the exposure time, the camera F-stop, or the laser power. Instrument settings for a typical assay are the following: laser power 0.3-0.6 W, camera F-stop F/2, and exposure time 0.4 sec.
(§2) Fluorescence data are collected in real-time at 1.0 sec intervals for the first 60 secs and at 6.0 sec intervals for an additional 120 secs. […] The data are then analyzed using an automated, iterative, sigmoidal curve-fitting computer program to obtain the potency and intrinsic activities of the test agents as previously described (Sharif et al. J. Pharmacol. Exp. Ther. 286: 1094-1102, 1998; Sharif et al. Invest. Ophthalmol. Vis. Sci. 39:2562-2571, 1998; Kelly et al. J. Pharmacol. Exp. Ther. 304: 238-245, 2003). The sources of materials and reagents for such assays can be found in the references cited above.

[2] = molecular target: T2, B2-receptors in h-CM cells (Homo sapiens, UniProt P30411); assay: [Ca2+]i mobilization (FLIPR) in h-CM cells, agonist mode; type: cell-based; details: read-out: Intrinsic Activity (Emax, % max relative to BK)
T2 construct: B2-receptor proteins in h-TM, h-CM and h-NPE cells; endogenous in cells; host or cells: human trabecular meshwork (h-TM), human ciliary muscle (h-CM) and human non-pigmented ciliary epithelial (h-NPE) cells
T2 sequence (P30411 1-391): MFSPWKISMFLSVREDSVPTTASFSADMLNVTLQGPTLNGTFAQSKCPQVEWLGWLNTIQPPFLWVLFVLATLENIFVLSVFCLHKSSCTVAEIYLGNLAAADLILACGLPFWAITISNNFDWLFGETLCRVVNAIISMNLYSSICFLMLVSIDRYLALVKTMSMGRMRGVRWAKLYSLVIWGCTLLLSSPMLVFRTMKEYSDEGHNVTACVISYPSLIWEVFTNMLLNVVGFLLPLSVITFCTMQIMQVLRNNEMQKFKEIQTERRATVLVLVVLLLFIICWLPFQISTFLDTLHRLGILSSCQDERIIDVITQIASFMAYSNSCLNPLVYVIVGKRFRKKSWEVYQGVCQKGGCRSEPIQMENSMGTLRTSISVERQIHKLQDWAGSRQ
Description: as §1, §2

[3] = molecular target: T3, B2-receptors in h-NPE cells (Homo sapiens, UniProt P30411); assay: [Ca2+]i mobilization (FLIPR) in h-NPE cells, agonist mode; type: cell-based; details: for Emax: read-out: Intrinsic Activity (Emax, % max relative to BK)
T3 construct: B2-receptor proteins in h-TM, h-CM and h-NPE cells; endogenous in cells; host or cells: human trabecular meshwork (h-TM), human ciliary muscle (h-CM) and human non-pigmented ciliary epithelial (h-NPE) cells
T3 sequence (P30411 1-391): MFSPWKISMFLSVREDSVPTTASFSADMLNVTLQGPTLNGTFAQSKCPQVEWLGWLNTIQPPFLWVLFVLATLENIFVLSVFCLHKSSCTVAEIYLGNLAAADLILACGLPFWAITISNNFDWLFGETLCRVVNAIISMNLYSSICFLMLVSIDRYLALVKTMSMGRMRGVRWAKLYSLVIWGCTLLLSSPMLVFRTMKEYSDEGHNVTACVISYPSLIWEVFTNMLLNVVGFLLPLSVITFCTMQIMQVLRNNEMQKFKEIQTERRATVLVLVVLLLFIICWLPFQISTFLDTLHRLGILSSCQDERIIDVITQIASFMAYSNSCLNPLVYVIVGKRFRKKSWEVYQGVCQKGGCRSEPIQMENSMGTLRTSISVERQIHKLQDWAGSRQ
Description: as §1, §2

[4] = molecular target: human bradykinin B2-receptor (human) (UniProt P30411); assay: cell-based or functional assay
[5] = molecular target: T4, human bradykinin B2-receptor (human, UniProt P30411 1-391); assay: cell-based or functional assay
T4 sequence (looked up): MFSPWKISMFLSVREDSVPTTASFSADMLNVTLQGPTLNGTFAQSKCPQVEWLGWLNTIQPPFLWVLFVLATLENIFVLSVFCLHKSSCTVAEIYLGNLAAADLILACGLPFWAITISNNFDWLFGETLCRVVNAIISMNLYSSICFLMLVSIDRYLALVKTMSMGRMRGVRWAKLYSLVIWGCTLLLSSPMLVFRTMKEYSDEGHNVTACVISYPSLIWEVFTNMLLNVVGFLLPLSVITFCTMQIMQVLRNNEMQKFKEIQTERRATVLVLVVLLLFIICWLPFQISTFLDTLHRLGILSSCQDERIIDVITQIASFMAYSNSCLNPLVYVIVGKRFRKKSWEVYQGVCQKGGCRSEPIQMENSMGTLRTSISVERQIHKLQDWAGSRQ

[6] = tested on: B1-receptor mRNA; assay: Microarray analysis of B1-receptor mRNA in TGFβ2-treated human TM cells; type: cell-based; details: Glaucomatous h-TM Cells, mean ± SEM
[7] = tested on: B2-receptor mRNA; assay: Microarray analysis of B2-receptor mRNA in TGFβ2-treated human TM cells; type: cell-based; details: mean ± SEM

**Q.** With `N=C(N)NCCC[C@H](NC(=O)[C@H](Cc1ccccc1)NC(=O)[C@@H]1CCCN1C(=O)[C@H](CO)NC(=O)[C@H](Cc1ccccc1)NC(=O)CNC(=O)[C@@H]1C[C@@H](O)CN1C(=O)[C@@H]1CCCN1C(=O)[C@@H](N)CCCNC(=N)N)C(=O)O` [Hyp^3-BK, Arg-Pro-Hyp-Gly-Phe-Ser-Pro-Phe-Arg] as the molecule, how does the EC50 [1] read?
**A.** The EC50 was 0.9 ± 0.3 nM.

**Q.** And the Emax [1]?
**A.** Its Emax is 110%.

**Q.** And the Emax [2]?
**A.** The Emax was 105%.

**Q.** What about the EC50 [3] of the same molecule?
**A.** The EC50 was 6 ± 0.6 nM.

**Q.** And the Emax [3]?
**A.** The Emax was 93%.

**Q.** Which results are given for H-RPPGFSPFR-OH [BK]?
**A.** Emax [1]: 110%; Emax [2]: 104%; Emax [3]: 98%

**Q.** With “Des-Arg^9-BK (Arg-Pro-Pro-Gly-Phe-Ser-Pro-Phe) (peptide)” as the molecule, how does the [Ca2+]i mobilization in h-CM cells: Intrinsic Activity (Emax, % max relative to BK) [4] read?
**A.** Its [Ca2+]i mobilization in h-CM cells: Intrinsic Activity (Emax, % max relative to BK) is 94%.

**Q.** What about the [Ca2+]i mobilization in h-CM cells: Potency (EC50; nM) [4] of the same molecule?
**A.** The [Ca2+]i mobilization in h-CM cells: Potency (EC50; nM) was 4260 nM.

**Q.** What about the [Ca2+]i mobilization in h-NPE cells: Intrinsic Activity (Emax, % max relative to BK) [4] of the same molecule?
**A.** The [Ca2+]i mobilization in h-NPE cells: Intrinsic Activity (Emax, % max relative to BK) was 70%.

**Q.** And the [Ca2+]i mobilization in h-NPE cells: Potency (EC50; nM) [4]?
**A.** The [Ca2+]i mobilization in h-NPE cells: Potency (EC50; nM) was 16000 nM.

**Q.** And the [Ca2+]i mobilization in h-TM cells: Intrinsic Activity (Emax, % max relative to BK) [4]?
**A.** The [Ca2+]i mobilization in h-TM cells: Intrinsic Activity (Emax, % max relative to BK) was 112%.

**Q.** What about the [Ca2+]i mobilization in h-TM cells: Potency (EC50; nM) [4] of the same molecule?
**A.** The [Ca2+]i mobilization in h-TM cells: Potency (EC50; nM) was 2570 nM.

**Q.** With “Hyp^3-BK (Arg-Pro-Hyp-Gly-Phe-Ser-Pro-Phe-Arg) (peptide)” as the molecule, how does the [Ca2+]i mobilization in h-CM cells: Intrinsic Activity (Emax, % max relative to BK) [4] read?
**A.** The [Ca2+]i mobilization in h-CM cells: Intrinsic Activity (Emax, % max relative to BK) was 105%.

**Q.** And the [Ca2+]i mobilization in h-NPE cells: Intrinsic Activity (Emax, % max relative to BK) [4]?
**A.** Its [Ca2+]i mobilization in h-NPE cells: Intrinsic Activity (Emax, % max relative to BK) is 93%.

**Q.** What about the [Ca2+]i mobilization in h-NPE cells: Potency (EC50; nM) [4] of the same molecule?
**A.** Its [Ca2+]i mobilization in h-NPE cells: Potency (EC50; nM) is 6 nM.

**Q.** What about the [Ca2+]i mobilization in h-TM cells: Intrinsic Activity (Emax, % max relative to BK) [4] of the same molecule?
**A.** Its [Ca2+]i mobilization in h-TM cells: Intrinsic Activity (Emax, % max relative to BK) is 110%.

**Q.** And the [Ca2+]i mobilization in h-TM cells: Potency (EC50; nM) [4]?
**A.** The [Ca2+]i mobilization in h-TM cells: Potency (EC50; nM) was 0.9 nM.

B1: Met-Lys-BK (Met-Lys-Arg-Pro-Pro-Gly-Phe-Ser-Pro-Phe-Arg) (peptide)
peptide: MKRPPGFSPFR
**Q.** With B1 as the molecule, how does the “[Ca2+]i mobilization in h-CM cells: Intrinsic Activity (Emax, % max relative to BK)” value [5] read?
**A.** Its value is 110%.

**Q.** What about the “[Ca2+]i mobilization in h-CM cells: Potency (EC50; nM)” value [5] of the same molecule?
**A.** Its value is 16.1 nM.

**Q.** And the “[Ca2+]i mobilization in h-NPE cells: Intrinsic Activity (Emax, % max relative to BK)” value [5]?
**A.** The value was 77%.

**Q.** What about the “[Ca2+]i mobilization in h-NPE cells: Potency (EC50; nM)” value [5] of the same molecule?
**A.** The value was 125 nM.

**Q.** What about the “[Ca2+]i mobilization in h-TM cells: Intrinsic Activity (Emax, % max relative to BK)” value [5] of the same molecule?
**A.** The value was 111%.

**Q.** And the “[Ca2+]i mobilization in h-TM cells: Potency (EC50; nM)” value [5]?
**A.** Its value is 6.5 nM.

B2: TGFβ2: cytokine transforming growth factor-β2 (protein, UniProt P61812 303-414, looked up)
Transforming growth factor …: ALDAAYCFRNVQDNCCLRPLYIDFKRDLGWKWIHEPKGYNANFCAGACPYLWSSDTQHSRVLSLYNTINPEASASPCCVSQDLEPLTILYYIGKTPKIEQLSNMIVKSCKCS
**Q.** Which “Normalized Levels of B1-receptor mRNA (GC-RMA)” value ([6]; after 1.5 hr) does the source give for B2 here?
**A.** The value was 1.54 ± 0.09.

**Q.** And the “Normalized Levels of B1-receptor mRNA (GC-RMA)” value ([6]; after 16 hr)?
**A.** Its value is 0.53 ± 0.05.

**Q.** What about the “Normalized Levels of B2-receptor mRNA (GC-RMA)” value ([7]; Glaucomatous h-TM Cells, after 1.5 hr) of the same molecule?
**A.** Its value is 0.97 ± 0.06.

**Q.** What about the “Normalized Levels of B2-receptor mRNA (GC-RMA)” value ([7]; Glaucomatous h-TM Cells, after 16 hr) of the same molecule?
**A.** Its value is 0.24 ± 0.06.

**Q.** What about the “Normalized Levels of B2-receptor mRNA (GC-RMA)” value ([7]; Normal h-TM Cells, after 1.5 hr) of the same molecule?
**A.** Its value is 0.68 ± 0.05.

**Q.** And the “Normalized Levels of B2-receptor mRNA (GC-RMA)” value ([7]; Normal h-TM Cells, after 16 hr)?
**A.** The value was 0.14 ± 0.11.

B3: Lys-BK (Lys-Arg-Pro-Pro-Gly-Phe-Ser-Pro-Phe-Arg) (peptide)
peptide: KRPPGFSPFR
**Q.** For B3, which “[Ca2+]i mobilization in h-CM cells: Intrinsic Activity (Emax, % max relative to BK)” value [5] is on record?
**A.** The value was 115%.

**Q.** What about the “[Ca2+]i mobilization in h-CM cells: Potency (EC50; nM)” value [5] of the same molecule?
**A.** Its value is 3.2 nM.

**Q.** What about the “[Ca2+]i mobilization in h-NPE cells: Intrinsic Activity (Emax, % max relative to BK)” value [5] of the same molecule?
**A.** Its value is 90%.

**Q.** What about the “[Ca2+]i mobilization in h-NPE cells: Potency (EC50; nM)” value [5] of the same molecule?
**A.** Its value is 19.6 nM.

**Q.** And the “[Ca2+]i mobilization in h-TM cells: Intrinsic Activity (Emax, % max relative to BK)” value [5]?
**A.** Its value is 115%.

**Q.** What about the “[Ca2+]i mobilization in h-TM cells: Potency (EC50; nM)” value [5] of the same molecule?
**A.** The value was 1.9 nM.
